Reference: a protein production outcome set (Wang et al. 2014)
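Further: failed if final PepcDB status was selected cloned or expressed and not failed if soluble or beyond.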

Experiment: label from the status in PepcDB records
In the case of “MKEDWKSTIQKRIVERNLNQSKKYESIMKSYNSLVEEKNNLLAIIASLTSENMYLLNNRKLNHSFESTMMTETNISRNEDIFLSNETKKGHNNNNNQNDYNNDNSLNYSRTNIITMKSPDSLSQNTITKKEFLEVIKEKGKNEELILLLKNSVNEKEKMLHILNKENNNLNNVICKREEELYEKKKDIFKLEELLNKKETQIKLYENNNKSLKTKIQLHDRKNQKYFRQYNILRFTYFKLLKQVGEMKVYNNNINQNYFSLRKEMLQKKEENEKLLNYLIHCKTSYKKELKKLYQEITNKQKKYILFKNNQFYVNLYLRKF”, the protein production is reported as “failed”. With “MKEFFKMFFASILGVITAGIILFCIFLFIFFGIVAGIASKATGGTIPKIEANSILHIDNSSFPEIVSANPWSMLTGKDESVSLSQAVEAIGQAKNNPNITGIFLDLDNLSVGMASAEELRRALQDFKMSGKFVVSYADRYTQKGYYLSSIADKLYLNPKGMLGLIGIATQTMFYKDALDKFGVKMEIFKVGTYKAAVEPFMLNRMSDANREQITTYINGLWDKITSDIAESRKTAMDSVKMFADKGEMFGLAEKAVEMKLVDELAYRTDVEKELKKMSQRGEKDELRFVSLSQVLANGPMNKTKGSRIAVLFAEGEITEEIIKKPFDTDGSSITQELAKEIKAAADDDDIKAVVLRVNSPGGSAFTSEQIWKQVADLKAKKPIVVSMGDVAASGGYYIACAANSIVAEHTTLTGSIGIFGMFPNFAGVAKKIGVNMDVVQTSKYADLGNTFAPMTVEDRALIQRYIEQGYDLFLTRVSEGRNRTKAQIDSIAQGRVWLGDKALALGLVDELGGLDTAIKRAAKLAQLGGNYSIEYGKTKRNFFEELLSSSAADMKSAILSTILSDPEIEVLRELRSMPPRPSGIQARLPYYFMPY” the protein production was “failed”. With “MKEGKHFVLVHGACHGGWSWYKLKPLLEAAGHKVTALDLAASGTDLRKIEELRTLYDYTLPLMELMESLSADEKVILVGHSLGGMNLGLAMEKYPQKIYAAVFLAAFMPDSVHNSSFVLEQYNERTPAENWLDTQFLPYGSPEEPLTSMFFGPKFLAHKLYQLCSPEDLALASSLVRPSSLFMEDLSKAKYFTDERFGSVKRVYIVCTEDKGIPEEFQRWQIDNIGVTEAIEIKGADHMAMLCEPQKLCASLLEIAHKYNLEHHHHHH” the protein production was “not failed”. With “MKEIALLAIARYGDLIQTTPLVRALRRAHPGARITAIVEDRFCGILPLLPGIDRTIVLNKQDIAWDIATGDSPLVPYLKMDEFVRKLEEGSYDLLVNITCSRLSAFFASCVTSRRRTGISADEAGERNIVTLEHHHHHH” the protein production was “failed”. With “MKEIKEITKKDVQDAEIYLYGSVVEGDYSIGLSDIDVAIVSDVFEDRNRKLEFFGKITKKFFDSPFEFHILTKKEWKMSKRFIRKYRRLDLIT” the protein production was “not failed”. In the case of “MKEKDKWIKNFRTRMEGYSEPAPADLWEQLEKELDTVPKVIPMWRRWQAVAAVALLVVVSSLTVWFWQSPSANYLEKQSAELNVMHEPDELVPGSITPEQPMALVVPAARSGKKQHVKVGGVAKAEALAAEQEVLLNKEVEEIQIEENYIEEQKEESVIVEQKQQKQAGRSSYSAAKTNYAYVAPHRKKDRNWSVGLSTGNGTFSSSTSMDGYLPLPNGTRNATMNSAYGVETRAEIDKLVQFNNLSEGKDAQSDIKYRMPVTFGASLRFDLSDDWAVETGVTYTQLSSETRSGTEKNNYGWEEKLHYVGIPLKVNRNIWSNKRFEVYASAGGAVEKCVSGKRSIIGSVSTSNAGKDEQFSGGEENVKVKPLQWSLSAAAGAQFKITEKLGIYAEPGVVYYFDDGSNVNTIRKEHPFNFNIQLGVRFTLPK”, the protein production is reported as “failed”. With “MKEKVVSLAQDLIRRPSISPNDEGCQQIIAERLEKLGFQIEWMPFNDTLNLWAKHGTSEPVIAFAGHTDVVPTGDENQWSSPPFSAEIIDGMLYGRGAADMKGSLAAMIVAAEEYVKANPNHKGTIALLITSDEEATAKDGTIHVVETLMARDEKITYCMVGEPSSAKNLGDVVKNGRRGSITGNLYIQGIQGHVAYPHLAENPIHKAALFLQELTTYQWDKGNEFFPPTSLQIANIHAGTGSNNVIPAELYIQFNLRYCTEVTDEIIKQKVAEMLEKHNLKYRIEWNLSGKPFLTKPGKLLDSITSAIEETIGITPKAETGGGTSDGRFIALMGAEVVEFGPLNSTIHKVNECVSVEDLGKCGEIYHKMLVNLLDS” the protein production was “not failed”. In the case of “MKELIKVIAFDADDTLWSNEPFFQEVEKQYTDLLKPYGTSKEISAALFQTEMNNLQILGYGAKAFTISMVETALQISNGKIAADIIRQIVDLGKSLLKMPIELLPGVKETLKTLKETGKYKLVVATKGDLLDQENKLERSGLSPYFDHIEVMSDKTEKEYLRLLSILQIAPSELLMVGNSFKSDIQPVLSLGGYGVHIPFEVMWKHEVTETFAHERLKQVKRLDDLLSLLG”, the protein production is reported as “not failed”. In the case of “MKELTVPDTTPLLPIVDPFEQQDSEGPDSTKVYPFYRNLAEGKLTMQRCKSCGRIFYPPQAMCKHCNSTDYEWVEVPKRGKIHAFSALLLGFPMVIEEFAPFVIAVARFGDYPENGVQIVGAMFDVDYSELSIGDEVEWEILKIKGPGDKVRYWYHFRKVLEHHHHHH”, the protein production is reported as “failed”. For “MKEQSYGKFAKFLHWVMALMIIVLIAVGTYMAGLDKADPNKMLLVGMHKSFGVIFMQFAILRVIWSRLNNSPKLPDVLASWEKLLSKTITGSLYLLMLAIPFSGYAMTNLFGYPVSLFGLIDLPVLFGKNTEMALLAKQAHFLLVYTLMAALFAHITGALKHRFLDKPEADVLPRMMPIKPRI”, the protein production was “failed”. With “MKERILQEIKTRVNRKSWELWFSSFDVKSIEGNKVVFSVGNLFIKEWLEKKYYSVLSKAVKVVLGNDATFEITYEAFEPHSSYSEPLVKKRAVLLTPLNPDYTFENFVVGPGNSFAYHAALEVAKHPGRYNPLFIYGGVGLGKTHLLQSIGNYVVQNEPDLRVMYITSEKFLNDLVDSMKEGKLNEFREKYRKKVDILLIDDVQFLIGKTGVQTELFHTFNELHDSGKQIVICSDREPQKLSEFQDRLVSRFQMGLVAKLEPPDEETRKSIARKMLEIEHGELPEEVLNFVAENVDDNLRRLRGAIIKLLVYKETTGKEVDLKEAILLLKDFIKPNRVKAMDPIDELIEIVAKVTGVPREEILSNSRNVKALTARRIGMYVAKNYLKSSLRTIAEKFNRSHPVVVDSVKKVKDSLLKGNKQLKALIDEVIGEISRRALSGLEHHHHHH” the protein production was “not failed”. For “MKERKKKYVALWQVMQRECRRLVSRPLYLFCMVIAPLFCYLFFTTLMDSGLPQNLPAGVVDMDDSSTSRNIVRNLDAFSQTGVVAHYSNVTDARIAVQEGKIYGFFYIPKGLSAEAQSQRQPKISFYTNYSYLIAGSLLFRDMKMMGELTAGSAARSVLYAKGATEDQAMGFLQPIVIDTHPLNNPWLNYSVYLCNTLIPGVLMLLIFMVTVYSIGVEIKDRTAREWLRMSNNSIYIALAGKLLPHTVVFFIMGIFYNVYLYGFLHFPCNSGIFPMIFATLCLVLASQCCGIVMIGTLPTLRLGLSFASLWGVISFSISGFSFPVMAMNPVLQALSNLFPLRHYFLIYVDQALNGYSMAYSWSNYMALLIFMMLPFFVVHRLKEALVYYKYIP”, the protein production was “failed”. For “MKESRNTLNSSELNTTTSWSKHDTHWVLSLFGTAVGAGILFLPINLGIGGFWPLVAMAFLAFPMTYLAHRGLARFVLSSKIKNADFTDVVEEHFGAKAGRSISLLYFLSIFPILLIYGVGITNTVDSFMVNQAGMEALPRELLSGVLVFALIAIMMAGEKVMLRAFAVMVYPLVAILAFLSFYLMPNWTMPVLDTPDMGAFASTMWLAVPVVIFSFSHAAAISSFANVQRRHYGDDADAKAELILRCTSIMLIAFVLLFVFSCVLALSPEQLAQAKAQNVSVLSYLANATDNPFIATLGPLVAFVAITSSFLGHFLGARESLNGLITKHSNLSETRVDRISVVVLFLSIWAAAIMNPSILGMMEALSGPVIAMILFIMPMLAVHKIESMKQYRGKLSTYFVLITGIVAVSALVFSLLS”, the protein production was “not failed”. For “MKETRGYGGDAPFCTRLNHSYTGMWAPERSAEARGNLTRPPGSGEDCGSVSVAFPITMLLTGFVGNALAMLLVSRSYRRRESKRKKSFLLCIGWLALTDLVGQLLTTPVVIVVYLSKQRWEHIDPSGRLCTFFGLTMTVFGLSSLFIASAMAVERALAIRAPHWYASHMKTRATRAVLLGVWLAVLAFALLPVLGVGQYTVQWPGTWCFISTGRGGNGTSSSHNWGNLFFASAFAFLGLLALTVTFSCNLATIKALVSRCRAKATASQSSAQWGRITTETAIQLMGIMCVLSVCWSPLLIMMLKMIFNQTSVEHCKTHTEKQKECNFFLIAVRLASLNQILDPWVYLLLRKILLRKFCQENPAVSS”, the protein production was “failed”. For “MKEVIAQNAKLSADDLKEILPKANKLEDFAFEKNEDSTISEVFQAKNGSENEGYIIKVSPKGFNGPIDMVVAIDKNREISGVKVLSQAETPGLGAKVEESSFSEKFKGLTIEDNIKIVKTSPSSQGEIQGITGATISSNAVSSGINDAISFYKENVLGEDLSKEKILNLSKINLEGDLKELTIELEEGIDKVSIVSNGEKEIGYAIEASEVGMYEEKPIKFALGISTGGIITGVQIIDHKETAGLGDLIEDENFLNSFIGVSSLDKLSVKENTNEIDLSVYGEVVNVDSISGATKSSMAIIKGITNVINFYNNNLSLEHHHHHH”, the protein production was “not failed”. For “MKEVLFISEMERGRAEIESRVSNIKTTQDFGYREKIKEKKDASTAYAACISELLLEEKVKKIAVAYDFPIFYSNYLTEAGFTIVPVKSPFRKMRSVKGPEEIEAIKYAQMAGEKAMEAAITLIADAEEKDGVLYFEGQVLTGAKVNSVIDHTLLDFGCEAEETIVSCGEDTSNPHGTTEGPLRANAPIILDIFPRSKKKRYFADMTRTVLRGEASEKLKEMYETVLVAQQKALEMVKPGIHSSEIHRAVCDLFEARGYHTYRSGSKAGFTHSTGHGVGLDIHELPSVGESGVLLETGNVITIEPGLYYPGIGGIRLEDMVLVTKTGYENFTGLEKKFVLKSFYNLEHHHHHH”, the protein production was “failed”. In the case of “MKFDNYIFDFDGTLADTKKCGEVATQSAFKACGLTEPSSKEITHYMGIPIEESFLKLADRPLDEAALAKLIDTFRHTYQSIEKDYIYEFAGITEAITSLYNQGKKLFVVSSKKSDVLERNLSAIGLNHLITEAVGSDQVSAYKPNPEGIHTIVQRYNLNSQQTVYIGDSTFDVEMAQHAGVPSAAVTWGAHDARSLLHSNPDFIINDPSEINTVL”, the protein production is reported as “failed”. For “MKFKTIIKASYSIIFLSFQKVLHWEHIKFTAFKNLLSVSTKILIDKSSSVKFAGKICTESNVELKALNGGKLFIAENVFINSNSIVVALDNIHIGSNTLIGPGVLIFDHDHDFEKDKNSGTKNGRHFVTKPIRIESDVWIGGNSVILKGVTIGKGAVIAAGSIVLKDVEPYCLYAGNPAKKIRSY”, the protein production was “failed”. In the case of “MKFKTRDLVLIPLFTAMTIIGAFIKIPVGVVPINLQFLFTALSGVLLGGALGAVSQILYVALGLIGLPVFTSGGGLSYIFTPTFGYLIGYILAAFIIGKITHSRKPKFTTIFFSCILGLIAVYFIGTTYLYIILNYVAGKNVSIIASIKLGVLMFIPGDIVKCIITALLGSRILPILNKTSLNN”, the protein production is reported as “failed”. In the case of “MKFLVENLNGSSFELEVDYRDTLLVVKQKIERSQHIPVSKQTLIVDGIVILREDLTVEQCQIVPTSDIQLEVSSDDDNPNHNDCDQKPQTEQSPALPLVSAEEYFERQDWPLTAEELRQIYSYRPEHEG”, the protein production is reported as “failed”. In the case of “MKFPGQRKSKHYFPVKTRDPLLEQLTQQPQPFATYISGIDQTLVDIEAKVEDELLSRYGLPKGNSTLINDEQAHTLYTELKQNGLISDEFAGGTIGNTVHNYSILADDRSVLFGVMSQNIEVGSYAYRYLCNTSSKVDLNYLQPVDGPIGRCFTLISDCGERTFAISKGAMDKLTPEYIDKDIVQGSSALVLTAYLMRASGGDRITDAAMCAIEYAKAAEVPVVLTLGTRFLIEEDPIWWQNFIKEHVTILAMNEDEGEALTGFRDPLLASEKALEWCDMVLTTAGPIGLYTAGYTDDAEKRETSHTLLPGAIPEFNRYEFSRPKLKSDCENPIKVYAHISPYMGGPEKIGNTNGAGDGALSALLHDLAANTFHKTNVPGSSKHKRDGLCYSSFSQICKYANRVAYEVLAQHSPRLSRGLPEREDSLEESYWER”, the protein production is reported as “failed”.
